According to paper doi:10.1101/2024.07.02.601760, “Multi-dimensional demarcation of phylogenetic groups of plant 14-3-3 isoforms using biochemical signatures” (bioRxiv, 2024):

Target: the molecule itself
Assay: SEC-MALS; Superdex 200 Increase 10/300, 0.8 ml/min; 65 µl of ~3 mg/ml or 100 μM per monomer loaded; 20 mM Tris-HCl pH 7.5, 150 mM NaCl, 5 mM βME, 3 mM NaN3; samples before preparative SEC; self-association, monomers to dimer (small tetramer peak for six isoforms)

B1: Arabidopsis thaliana 14-3-3 omicron (natural protein, UniProt Q9S9Z8 1-252, looked up)
chain: MENERAKQVYLAKLNEQAERYDEMVEAMKKVAALDVELTIEERNLLSVGYKNVIGARRASWRILSSIEQKEESKGNEQNAKRIKDYRTKVEEELSKICYDILAVIDKHLVPFATSGESTVFYYKMKGDYFRYLAEFKSGADREEAADLSLKAYEAATSSASTELSTTHPIRLGLALNFSVFYYEILNSPERACHLAKRAFDEAIAELDSLNEDSYKDSTLIMQLLRDNLTLWTSDLEEGGEQSKGHNQQDEN
notes: 14-3-3 omicron, Arabidopsis thaliana, epsilon group; construct provided by Prof; Robert J. Ferl; source: E. coli C41(DE3), purified (IMAC, thrombin cleavage of the His6-tag, subtractive IMAC, preparative SEC; aliquots before preparative SEC for SEC-MALS)
  stoichiometry N: 2
